Reference: CN112239498A

Experiments:
[1] = target: 1aE2C、1bE2C、2aE2C、3aE2C、4aE2C、5aE2C、6aE2C; assay: ELISA, coated E2C of seven subtypes
[2] = target: 1bE2C (Hepatitis C virus, subtype 1b); assay: ELISA, coated 1bE2C, anti-human IgG-HRP detection

B1: 抗体HNC-5 (antibody, V domains shown)
VH: QVQLVQSGAEVKKPGSSVKVSCKVSGVTFKGYAISWVRQAPGQGLEWMGSVIPIFGAANYAQQFQGRVTITADESTSTAYMELRSLKFDDTAVYYCGRGDQLLWGITAFHYWGQGTLVTVSS
VL: EIVLTQSPGTLPLSPGEGATLSCRASHIVTSNNLAWYQQKPGQAPRLLIYGASNRATGIPDRFSGSGSGTDFTLTISRLEPEDFAMYYCQQYGSSPGTFGQGTKLEIK
B1 was tested, and the EC50 [1] was 0.00216 to 0.0226 µg/mL and the EC50 [2] was 0.016 µg/mL.
